{"source": "paper PMC2645378", "about": "(Virology Journal, 2008)", "proteins": {"B1": {"name": "FLAG-tagged soluble Lassa virus glycoprotein 1 (sGP1-FLAG) (natural protein)", "chain": "TSLYKGVYELQTLELNMETLNMTMPLSCTKNNSHHYIMVGNETGLELTLTNTSIINHKFCNLSDAHKKNLYDHALMSIISTFHLSIPNFNQYEAMSCDFNGGKISVQYNLSHSYAGDAANHCGTVANGVLQTFMRMAWGGSYIALDSGRGNWDCIMTSYQYLIIQNTTWEDHCQFSRPSPIGYLGLLSQRTRDIYISRRLL"}}, "target": "the molecule itself", "note": "“And” between values parts separate entries of the source, which are not always exact repeats. Equal values may be shown once."}
{"protein": "B1", "values": [{"measurement": "stoichiometry N", "result": "2 and 3"}]}
